From patent US20080195324A1 come the findings set out here.

The test has as its target 10-subunit yeast RNA polymerase II (yeast) (UniProt P16370). The test is described as follows: 2.8 Å cocrystal structure; change in solvent-exposed surface of pol II residues, AREAIMOL, probe radius 1.4 Å.

On to α-amanitin (peptide), for which the Δsurface area (Total) is -541 Å^2.
